Tested on: MS2 coat protein
Test: apparent KD of MS2 coat protein; designed switch direction (-1 OFF switch, 1 ON switch): 1; higher = weaker reporter binding
Outline: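 On Illumina chips, designed RNA switches with common flanks were made by stalled E. coli RNA polymerase. Titrations with SNAP-549-labelled MS2 coat protein, doubling from 0.7 or 1.5 nM to 3 µM, were done with no input, with 200 uM small-molecule ligand, or with an oligonucleotide input. Apparent KD is the median per design over clusters, from curve fits of normalised cluster fluorescence.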

[1] = input ligand: microRNA oligo, concentration not stated
[2] = Eterna round: R95, input ligand: FMN 200 uM
[3] = Eterna round: R95, input ligand: microRNA oligo, concentration not stated
[4] = Eterna round: R95, input ligand: none

Sequence | apparent KD of MS2 coat protein (input ligand: FMN 200 uM) [nM] | apparent KD of MS2 coat protein [1] [nM] | apparent KD of MS2 coat protein (input ligand: none) [nM] | apparent KD of MS2 coat protein [2] [nM] | apparent KD of MS2 coat protein [3] [nM] | apparent KD of MS2 coat protein [4] [nM]
GGAGCCGGCCUAGGAUAUUUCAUAUAAUAACAUGAGGAUCACCCAUGUAGGCCAGAAGGCCUUGGGAAGAAGGAGGUCGGCUCC [Loop Effect - U25,U28] (Eterna round: R96, puzzle: Same State NG 2) | 13.1 | 39.1 | 50.8 | – | – | –
GGAGCCGGCCUAGGAUAUUUCAUAUUAAAACAUGAGGAUCACCCAUGUAGGCCAGAAGGCCUUGGGAAGAAGGAGGUCGGCUCC [Loop Effect - U25,U26] (Eterna round: R96, puzzle: Same State NG 2) | 15.2 | 50.7 | 87.8 | – | – | –
GGAGCCGGCCUAGGAUAUUUCAUAUUUAAACAUGAGGAUCACCCAUGUAGGCCAGAAGGCCUUGGGAAGAAGGAGGUCGGCUCC [Loop Effect - U25,U26,U27] (Eterna round: R96, puzzle: Same State NG 2) | – | 57.4 | – | – | – | –
GGAGCCGGUACUGAGGAUAUUCGUAUUAAAACAUGAGGAUCACCCAUGUAGGCCAGAAGGCCUUGGGAGAAGGCAGAUCGGCUCC [Biseusra - 1] (puzzle: Same State 2) | – | – | – | 13.2 | 36 | 48.3
GGAGGACAUGAGGAUCACCCAUGUGGAUGGGCGCUAGGAUAUGCGUGCGGGAAGAGUGGAGCAGAAGGAGUGGGUU [JR_SS1_Sub045] (Eterna round: R96, puzzle: Same State 1) | 66.8 | 41.9 | 55.6 | – | – | –
GGAGGACAUGAGGAUCACCCAUGUGGAUGGGCGCUAGGAUAUGCGUGCGGGAAGAGUGGAGCAGAAGGAGUGGGUU [JR_SS1_Sub045] (puzzle: Same State 1) | – | – | – | – | 37.4 | –
GGAUCCGGCACUGAGGAUAUUCAUAUUUAAACAUGAGGAUCACCCAUGUAGGCCAGAAGGCCUUGGGAGAAGGCAGGUCGGCUCG [salish99_ss2_r3_082] (puzzle: Same State 2) | – | – | – | 27.6 | 268 | 484
GGAUGAUAGACAGGAUAUUGAUUGUAAUUUUGUCAAGAAGGGUCUUUGAUUUAAACGACCAGUUACAUGAGGAUCACCCAUGUU [JR_SSNG1_Sub030] (Eterna round: R96, puzzle: Same State NG 1) | 20.1 | 27.6 | 30.3 | – | – | –
GGAUUGGAGGCAGGAUAUGGGCUCAGAACAUGAGGAUCACCCAUGUAAAACGGCGCGAUGCGCCACCAGAAGGGCCUCCGAUCG [Tiaonbira] (Eterna round: R96, puzzle: Same State NG 2) | 12.8 | 23.8 | 37.3 | – | – | –
GGCAGACAUGAGGAUCACCCAUGUCGGCCGUUAGGAGGAUAUCGGUGAUAUCUGUCUCGCCGAGAAGGUUUAAUUA [Onaterleza] (puzzle: Same State 1) | – | – | – | – | 9.71 | –
GGCAGGUGCAGGCUUGCUUGCACCUGGAAACAUGAGGAUCACCCAUGUUUGGGACAAGCUUUGCUCCUCGUUUUGUC [JL ViennaUCT Isusreraar mod 3] (puzzle: Sensor for hsa-mir-208a) | – | – | – | 209 | 133 | 288
GGCGAACAGGCUAACAUGAGGAUCACCCAUGUGGACUCAUGGUAGGAUAUCGGGAAGGAGGAAACCGAGAAGGGCCGGUGAGCC [AK SSNG3-V2-48] (Eterna round: R96, puzzle: Same State NG 3) | 14.3 | 20 | 716 | – | – | –
GGGAGACAUGAGGAUCACCCAUGUGGGAGGGAACGAGGAUAUGUAAGGAGAGAGAAUAGAACAGAAGGCGUAGGUG [JR_SS1_Sub022] (puzzle: Same State 1) | – | – | – | 50 | 50 | 61.9
GGGCCAGCUUGUGCUGGGCCUUCGCAUGCACAUGAGGAUCACCCAUGUCGUGUACAUGCUUUUUGCUCGUCUUUAAA [Photon Torp-11] (puzzle: Sensor for hsa-mir-208a) | – | – | – | 39.6 | 14 | 40.8
GGGCCAGCUUGUGCUGGGCCUUCGCUUGCACAUGAGGAUCACCCAUGUCGUGUACAUGCUUGGUGCCCGUCUUUCCC [Photon Torp-15] (puzzle: Sensor for hsa-mir-208a) | – | – | – | 182 | 49.2 | 201
GGUAAGAACUAAGGAUAUUGAAUACAUAUGUUUAACAUGAGGAUCACCCAUGUGGGUUGCGGUGUCGAGAAGGUAGAAUAAUAG [Mat - same State NG 2 - JL mod - D102] (Eterna round: R96, puzzle: Same State NG 2) | 204 | 166 | 193 | – | – | –
GGUAGGUUACUACCAACACAUGAGGAUCACCCAUGUUAUGGGAAGGAUAUGGUACCUAUUUGGUACCAGAAGGUCCAGUUAAUU [Fiskers NG3ss - 16] (Eterna round: R96, puzzle: Same State NG 3) | 77.6 | 206 | 449 | – | – | –
GGUCCAGCCUGAGCUGGACAAAAGCAUGUACAUGAGGAUCACCCAUGUCAUGUACAAGCUUUUUGCUCGUUUUAAAA [JL mod - D87 - 14] (puzzle: Sensor for hsa-mir-208a) | – | – | – | 527 | 14.5 | 576
GGUCCAGCCUGAGCUGGACAAAAGCAUGUACAUGAGGAUCACCCAUGUUAUGUACAAGCUUUUUGCUCGUCUUAAAA [JL mod - D87 - 10] (Eterna round: R96, puzzle: Sensor for hsa-mir-208a) | 183 | 12.2 | 188 | – | – | –
GGUCCAGCCUGAGCUGGACAAAAGCAUGUACAUGAGGAUCACCCAUGUUAUGUACAAGCUUUUUGCUCGUCUUAAAA [JL mod - D87 - 10] (puzzle: Sensor for hsa-mir-208a) | – | – | – | 172 | 12.6 | 231
GGUCCAGCCUGAGCUGGACAAAAGCAUGUACAUGAGGAUCACCCAUGUUCAUGUACAAGCUUUUUGCUCGUCUUACA [salish99_208a_r3_084] (puzzle: Sensor for hsa-mir-208a) | – | – | – | 485 | 14.8 | 443
GGUCCAGCCUGAGCUGGACAAAAGUAUGUACAUGAGGAUCACCCAUGUCAUGUACAAGCUUUUUGCUCGUCUUAAAA [JL mod - D87 - 9] (puzzle: Sensor for hsa-mir-208a) | – | – | – | 430 | 22.4 | 486
GGUCCAGCCUGAGCUGGACGGUAGUAUGUACAUGAGGAUCACCCAUGUCAUGUAGAAGUUACUUGUUCGUCUUGAAC [SENSOR #1] (puzzle: Sensor for hsa-mir-208a) | – | – | – | 15.1 | 13.3 | 14.9
GGUCCAGCCUGAGCUGGACUACAGCAUGUACAUGAGGAUCACCCAUGUCAUGUACAUGUUUUUUGUUUGUCUUAAAA [Sensorship 9 - Jieux - Sensor for hsa-mir-208a] (Eterna round: R96, puzzle: Sensor for hsa-mir-208a) | 200 | 57.5 | 503 | – | – | –
GGUCCAGCCUGAGCUGGACUACAGCAUGUACAUGAGGAUCACCCAUGUCAUGUACAUGUUUUUUGUUUGUCUUAAAA [Sensorship 9 - Jieux - Sensor for hsa-mir-208a] (puzzle: Sensor for hsa-mir-208a) | – | – | – | 69 | 70.1 | 99.4
GGUCCAUCAUGAGGAUAUGGCACCUUAUUGGUGCCAGAAGGCAUGUCUAUGACAUGAGGAUCACCCAUGUAAAUAAAUUGGACC [Eli NG1ss - 94] (Eterna round: R96, puzzle: Same State NG 1) | 32.3 | 243 | 232 | – | – | –
GGUCCCUACGCACAGGAUAUUCUUUUGGCAACAUGAGGAUCACCCAUGUGUGCCGAUCAUGGUUAGAAGAAGGGUGGUAAGGACG [Qucesosobe] (puzzle: Same State 2) | – | – | – | 9.76 | 10.8 | 12.2
GGUCCGGCCUGAGCUGGACCGAAGCAUGUACAUGAGGAUCACCCAUGUUCAUGUGCAGGCUUUUUGCUCGUCUUGUG [JL-shm-2.05 JL mod] (puzzle: Sensor for hsa-mir-208a) | – | – | – | 91.7 | 12.7 | 106

Source: the supplement of paper PMC9170038
